36 sequences from the supplement of paper PMC10567573 can be followed below.

A short description of this series: protein stability index of a GFP-peptide fusion (GPS, HEK-293T) (PSI 1-6); higher = more stable. To be noted: c terminus: a fixed tail appended.

± gives the standard deviation.
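Further: 24-mer peptide tiles fused after GFP, lentivirally expressed, FACS-sorted into six equal bins by GFP/DsRed ratio, decoded by Illumina sequencing, PSI is the read-weighted mean bin number.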

On to QHNLRDSLENTLTESEAHYSSQLS [KRT34], for which the protein stability index amounted to 5.066 ± 0.033 (treatment: DMSO) and 4.99 ± 0.23 (treatment: MLN4924 1 uM, 8 h).
The like results for QKCHSIGETDEVTKTEDRELVLRK [ZSCAN9] were, in that order, 5.32 ± 0.3 and 5.37 ± 0.2.
With QKLLEQTQIIGEQNARLAELERKL [FBXO28], the protein stability index turned out to be 4.15 ± 0.082 (treatment: DMSO) and 4.24 ± 0.38 (treatment: MLN4924 1 uM, 8 h).
For QKPEFQDLSVEERSFVEKHRWPSN [RHOBTB3] the same measures were 4.08 ± 0.34 and 4.04 ± 0.17.
The like results for QLLILLQNCTDEGEREAIQKSVTR [POP5] were, in that order, 3.91 ± 0.26 and 4.12 ± 0.27.
For QLQFLIRYHRFISFALYLAGFCMF [CDS1] the same measures were 2.07 ± 0.062 and 2.32 ± 0.52.
For the sequence QMREAFATAFSKLKPESSQQPGQD [ZBED1], the protein stability index was determined as 4.57 ± 0.19 (treatment: DMSO) and 4.62 ± 0.094 (treatment: MLN4924 1 uM, 8 h).
The like results for QPVKTAGEITQHNVTELLRDVAAW [DNAAF3] were, in that order, 3.73 ± 0.32 and 3.75 ± 0.27.
The like results for QPVSLRRRKREVLVEDMVSQEEAQ [ZNF24] were, in that order, 5.07 ± 0.25 and 5.34 ± 0.33.
The like results for QQCVDKESSLGSESEEEEEFYDAD [SLC22A15] were, in that order, 5.52 ± 0.45 and 5.33 ± 0.33.
Consider QQQRQRPPRPPPRGTPPRRHSFRK [N4BP2L1], for which the protein stability index runs as follows: (treatment: DMSO) 4.44 ± 0.16; (treatment: MLN4924 1 uM, 8 h) 4.75 ± 0.26.
For QRLGIPKDPRQWTETHVRDWVMWA [ETS1] the same measures were 2.37 ± 0.31 and 2.48 ± 0.3.
Turning to QRTIMKPLEYQFKSQIMSLSHSPQ [TLE6], the protein stability index (treatment: DMSO) was found to be 2.89 ± 0.26 and the protein stability index (treatment: MLN4924 1 uM, 8 h) amounted to 3.2 ± 0.23.
With QSILLNTRLQDCYVDSPALTNIWM [C22orf31], the protein stability index came to 2.24 ± 0.24 (treatment: DMSO) and 2.1 ± 0.36 (treatment: MLN4924 1 uM, 8 h).
In the case of QSQLSMKAGLENSLAETECRYATQ [KRT15], the protein stability index by setting is: (treatment: DMSO) 4.38 ± 0.23; (treatment: MLN4924 1 uM, 8 h) 4.46 ± 0.17.
As for QSYFKTIEDFQQKILLTKSENARL [KRT36], the protein stability index was 3.05 ± 0.42 (treatment: DMSO) and 2.77 ± 0.23 (treatment: MLN4924 1 uM, 8 h).
On to QSYPLCIYLINQKWFGRKRTLSAF [SLC22A15], for which the protein stability index is, setting by setting: (treatment: DMSO) 2.46 ± 0.47; (treatment: MLN4924 1 uM, 8 h) 2.2 ± 0.61.
Consider QTKQVYDAVGMLGIEEVTYENCLQ [NLN], for which the protein stability index by setting is: (treatment: DMSO) 3.56 ± 0.4; (treatment: MLN4924 1 uM, 8 h) 3.73 ± 0.53.
Regarding QWSSDVAPTSTCRTSVGVAVLGGF [KLHL20], the protein stability index by setting is: (treatment: DMSO) 2.69 ± 0.58; (treatment: MLN4924 1 uM, 8 h) 2.71 ± 0.86.
Regarding QYEGHVNEYAYLPLHVHEEEGILV [DCAF4], the protein stability index reads like this: (treatment: DMSO) 3.19 ± 0.13; (treatment: MLN4924 1 uM, 8 h) 3.17 ± 0.27.
The like results for QYLEEERHMREENLRLQRKLQREM [CCDC6] were, in that order, 4.24 ± 0.22 and 4.16 ± 0.42.
As to QYVITHAKVNILLVENDQQLQKIL [ACSBG2], the protein stability index reads like this: (treatment: DMSO) 2.5 ± 0.58; (treatment: MLN4924 1 uM, 8 h) 2.13 ± 0.2.
The like results for RAFKIKDFANTIPGHGGIMDRFDC [CDS1] were, in that order, 2.41 ± 0.28 and 2.76 ± 0.27.
Consider RAKLDELEGALHQAKEELARMLRE [KRT71], for which the protein stability index runs as follows: (treatment: DMSO) 2.97 ± 0.36; (treatment: MLN4924 1 uM, 8 h) 3.7 ± 0.33.
RAPVVGVRVNVLLSRYLIEPCGPG [DLC1]: the protein stability index is, setting by setting: (treatment: DMSO) 2.45 ± 0.7; (treatment: MLN4924 1 uM, 8 h) 2.79 ± 0.86.
For RAVNSLSMENANQENEEKEQVANK [BEX1] the same measures were 5.52 ± 0.24 and 5.5 ± 0.34.
For RDSFMRHRGHCERRHRLGGVGAVP [ZBTB22] the same measures were 3.22 ± 0.35 and 3.25 ± 0.4.
As to REGALRAALQRSLAAALAQHSVPL [TRADD], the protein stability index amounted to 2.25 ± 0.3 (treatment: DMSO) and 2.28 ± 0.2 (treatment: MLN4924 1 uM, 8 h).
RELNLPFGGMKSSGIGREGAKDSY [ALDH8A1]: the protein stability index by setting is: (treatment: DMSO) 4.08 ± 0.12; (treatment: MLN4924 1 uM, 8 h) 4.16 ± 0.37.
For RERDSVPKPSVLFLHPDLGVGGAE [ALG2] the same measures were 4.08 ± 0.41 and 4.21 ± 0.16.
Regarding RETASLKLLPHQPRIVEMKKGSNG [PDZK1], the protein stability index is, setting by setting: (treatment: DMSO) 3.75 ± 0.31; (treatment: MLN4924 1 uM, 8 h) 3.85 ± 0.32.
For REVAKELGIPYYETSVVAQFGIKD [RHOBTB2] the same measures were 3.2 ± 0.43 and 3.39 ± 0.27.
For the sequence RFKDKSSEEAVREVHRLIEGKAPI [TPPP], the protein stability index reads like this: (treatment: DMSO) 4.6 ± 0.15; (treatment: MLN4924 1 uM, 8 h) 4.58 ± 0.18.
RFLGEGHHRVQENQMDKARRHPQG [CHGB]: the protein stability index came to 4.5 ± 0.44 (treatment: DMSO) and 4.62 ± 0.38 (treatment: MLN4924 1 uM, 8 h).
The sequence RFNLILADTNSDRLFTVNDVKVGG [DCAF4] showed a protein stability index (treatment: DMSO) of 2.44 ± 0.15 and a protein stability index (treatment: MLN4924 1 uM, 8 h) of 2.31 ± 0.4.
The like results for RFQDLVLRMLEYEPAARISPLGAL [DYRK1B] were, in that order, 2.67 ± 0.47 and 2.4 ± 0.43.
